{
  "source": "the DeepSol protein solubility set",
  "data": [
    {"test": "soluble on expression in E. coli; label from the status in PepcDB or PDB records", "values": [
      {"sequence": "MSLVNTIGFDREKYIEMQSQHIRERREALGGKLYLEMGGKLFDDMHASRVLPGFTPDNKIAMLDRIKDEVEILVCINAKDLERHKIRADLGISYEEDVLRLVDVFRDRGFLVEHVVLTQLENDNRLALAFIERLQRLGIKVSRHRVIPGYPTDMDRIVSDEGFGLNEYAETTRDLVVVTAPGPGSGKLATCLSQVYHEHKRGVAAGYAKFETFPIWNLPLEHPVNLAYEAATVDLNDANVIDHFHLAAYGEQTVNYNRDVEAFPLLKTLLERLMGESPYQSPTDMGVNMAGNCISDDAACRHASEQEIIRRYFKALVEEARTGKDSTQSDRAAVVMAKAGIKASQRVVVEPARQVEERTSLPGCAIELVDGSIITGATSDLLGCSSSMLLNALKHLAGIDDAIHLLSPESIEPIQTLKTVHLGSSNPRLHTDEVLIALSVSAATDSNAQKALDQLKNLRGCDVHTTTILGSVDEGIFRNLGVLVTSDPKFQKNKLYQKREGHHHHHH", "soluble on expression in E. coli": "soluble"},
      {"sequence": "MRKKDAYISQVKVRQDPVNQLAVEMRAKRFGLTIEEAKNPLAGSYVGRLCLQGVLTQDQYDATQKYLEVRNDYSCAKGLPSAVYDEKPSSSDDKAREKWVERATEQFCNTQKVLKEAQCLYRQHNLYAALQYLVMEDQELPHLVNALRIALNTLQKYFDPKSKWEMFYCYEKLLKNR", "soluble on expression in E. coli": "not soluble"},
      {"sequence": "MSLKVFLKKGKEKKVKHFYPWVFRDEVEKIEGEGIVAELYDSEGNFLALGTYSPYSRIAFRVLSYEREEVNEEFFKRRLRESELLRRDIPSNAYRLAFSESDLLSGLIIDRYGDAFVIQVRSYPMEILKEKVLKTLVEEFNPAFVYERSDFKGRREEGLKEFKGLLYGKLENPLIIEEREFKFLVDVVEGLKTGFYLDQRDNREYVRNLVKEGDRVLDLFCYSGGFSVYCANRGAKVVGVDINKRAVELARENAKLNSVKADFVLGNAFDFIQESKEEWDLIIADPPAIAKTKKEKESILWAIWKLAYYSFQKLKKGGSLFICSCTYQISSEEMIRQVRLASTDVKRRIIIKSLNLQPIDHPYLPTFPESLYLKCLHAIVIDEGHHHHHH", "soluble on expression in E. coli": "soluble"},
      {"sequence": "MGSDKIHHHHHHMTRIASHRGGTLEFGDSTPHGFTATAAMALEEVEFDLHPTADGAIVVHHDPTLDATTDMTGAIVDMTLAKVKTATIRYGAGSHPMTLEELCALYVDSHVNFRCEIKPGVDGLPYEGFVALVIAGLERHSMLERTTFSSFLLASMDELWKATTRPRLWLVSPSVLQQLGPGAVIETAIAHSIHEIGVHIDTADAGLMAQVQAAGLDFGCWAAHTPSQITKALDLGVKVFTTDRPTLAIALRTEHRMEASV", "soluble on expression in E. coli": "not soluble"},
      {"sequence": "MSNTLNHTSSRQIVRHYTHSQKRCKHLMQYFVSANGLFELKVKIYAFLFSMILEGKCRSVSIIADISCFFLFHFHAIRNAFYSIHPTYRAEGENERLTLLLIAQGYALSL", "soluble on expression in E. coli": "not soluble"},
      {"sequence": "MKALNREVIEYFKEHVNPGFLEYRKSVTAGGDYGAVEWQAGSLNTLVDTQGQEFIDCLGGFGIFNVGHRNPVVVSAVQNQLAKQPLHSQELLDPLRAMLAKTLAALTPGKLKYSFFCNSGTESVEAALKLAKAYQSPRGKFTFIATSGAFHGKSLGALSATAKSTFRKPFMPLLPGFRHVPFGNIEAMRTALNECKKTGDDVAAVILEPIQGEGGVILPPPGYLTAVRKLCDEFGALMILDEVQTGMGRTGKMFACEHENVQPDILCLAKALGGGVMPIGATIATEEVFSVLFDNPFLHTTTFGGNPLACAAALATINVLLEQNLPAQAEQKGDMLLDGFRQLAREYPDLVQEARGKGMLMAIEFVDNEIGYNFASEMFRQRVLVAGTLNNAKTIRIEPPLTLTIEQCELVIKAARKALAAMRVSVEEA", "soluble on expression in E. coli": "not soluble"},
      {"sequence": "MQVSIVNEHKYRELEPLNEMLVKRGGVKMIPEPKFVISGLVDNEEYVIKLRIDLADEFRYSYQNQQWTPFAPSTKNSKLSAITETEHRKETGATWNMRIVQFDKLLITREFNDIQRNVIHVEPNHKYIPVLTIQNVTTGKSTEFQFQQMEFIAVKSYQSARIRHTKRAPRKMNLAPGSSQKPQLIVPDILHSPTYGFTAAPPPFPFEYWLLYPQIQYQIQQLAYSLPMGPPMVPIHHIQCTEASQRVYAPEYGWNSILMPGAHKEQDDHYMFHHEIWAPQDHELEKLHVLTEQKNKPSETPQ", "soluble on expression in E. coli": "not soluble"},
      {"sequence": "EHLLEELESELVRRVYSTHFPPQVSIDEGQAQLACAEFHAVTPEEGQDLLVLSGDHQAQNNQGHYGLTDTFLDIADEFGIQRVFALGGVPTGELIEEYDVLGATTTEDFKETLEESGVAFREDEPAGGIVGVSGLLLGLSKRRDVPASCLMGETSGYLVDPKSAQAVLEILQDVIGFEVDYSSLEDRADEMEEVVRKIQEMEQQNSPSPADEDLRYIG", "soluble on expression in E. coli": "not soluble"},
      {"sequence": "RCPKGSKAYGSHCYALFLSPKSWTDADLACQKRPSGNLVSVLSGAEGSFVSSLVKSIGNSYSYVWIGLHDPTQGTEPNGEGWEWSSSDVMNYFAWERNPSTISSPGHCASLSRSTAFLRWKDYNCNVRLPYVCKFTD", "soluble on expression in E. coli": "soluble"},
      {"sequence": "SSMLPSFGFTQEQVACVCEVLQQGGNLERLGRFLWSLPACDHLHKNESVLKAKAVVAFHRGNFRELYKILESHQFSPHNHPKLQQLWLKAHYVEAEKLCGRPLGAVGKYRVRRKFPLPRTIWDGEETSYCFKEKSRGVLREWYAHNPYPSPREKRELAEATGLTTTQVSNWFKNRRQRDRAAEAKERENTENNNSSSNKQNQLSPLEGGKPLMSSSEEEFSPPQSPDQNSVLLLQGNMGHARSSNYSLPGLTASQPSHGLQTHQHQLQDSLLGPLTSSLVDLGS", "soluble on expression in E. coli": "soluble"},
      {"sequence": "MANRVTMMMKIFENQTAMLHKALNDQHTIESKYKQMETNYENLILKKNLLEGEIQRLRDPERVKSATKLERTKKPGKSEKKKDKDLERNISPNREFKSFEELHQIQETERNKTQLDNVLPQKSEMFKEERTKTKRGQSQNKSKVKIEDSKDSLPKKSDTQLGEQRKDQISSDQSKRAK", "soluble on expression in E. coli": "soluble"},
      {"sequence": "SEKNPPDDTGPVHVPLGHIVANEKWRGSQLAQEMQGKIKLIFEDGLTPDFYLSNRCCILYVTEADLVAGNGYRKRLVRVRNSNNLKGIVVVEKTRMSEQYFPALQKFTVLDLGMVLLPVASQMEASCLVIQLVQEQTKEPSKNPLLGKKRALLLSEPSLLRTVQQIPGVGKVKAPLLLQKFPSIQQLSNASIGELEQVVGQAVAQQIHAFFTQPR", "soluble on expression in E. coli": "soluble"},
      {"sequence": "MPFENAPHLVFWEVTKACPLTCKHCRANAIDKPLPGELNTEESRKLLEDIARFGKVVIVFTGGDPLSRSDIFELMEYAKSLGLVVSIAPSPSHRLDDETMKIISNYARYMSISLDGATSQTHDWLRGLGSYKYALRGIELGLKYGIQVQVNTLVWKKSYSELPFVVKLLKEMGVKIWEVFFLIPVGRGTTELDIPRDKYKDVIDFLVEATRYDLIVRTVEAPFFRRAKLEYTPATTNDNELVSTLRELLGEPVKEADKSILPTRDGAGVIFIGYNGDVYPSGFLPLYLGNVKKESLVDIYRKSEVLKKIKDSRFEGKCGICKYNNICGGSRARAFAVYNNPFAEDPMCPY", "soluble on expression in E. coli": "not soluble"},
      {"sequence": "MGSDKIHHHHHHMQPDVRHSPKEAFEFAANNGFTHVEILMDHPLYSLENLSFAEVIELKWSYDLDLLIHAPATSTNFISISNEMRKASYKEMSKVCYFAEKCGAEVVTFHIGWNPAFINNGNFYFNKSLFDRHNESVLLNEFLPFVKTCPVQLALENTIMIEDGLERALNEIMGKTTLGLTIDVGHYNIRENPFFLKNFDRVVNMHLHDNDGTADQHLALGRGTVDLSKFNLNRYTGFLTIETREEKSIIESRDYLMRVIV", "soluble on expression in E. coli": "not soluble"},
      {"sequence": "MAHHHHHHMRTAVGSGAGASAAARAIPTAVPLTVADIDALARRDGVVSSDAVVSQQGTVASSRSVAELQAVVQSLQQENAELRERLERDRRQMLRSAMDVRDLHASQKQIRQRDLDRIEWLYCDNQRLRKILEMQGSAQELAGVLSPQPPAAAPATAHRPSLEGLRPLPEVPVELNAIEEEMPALEAEVVHLRGALVLKTQHLDDLWGHAERAEGYVQDLLQKLEHVQGIVREESDSCARRSKHLESTDQPLEDIVSFVSLRDHSSATQLTGPSSTTPFPFATVGRCEHIKRAAAVHGG", "soluble on expression in E. coli": "not soluble"},
      {"sequence": "MRIVTAAVMASTLAVSSLSHAAEVGSGDNWHPGEELTQRSTQSHMFDGISLTEHQRQQMRDLMQQARHEQPPVNVSELETMHRLVTAENFDENAVRAQAEKMANEQIARQVEMAKVRNQMYRLLTPEQQAVLNEKHQQRMEQLRDVTQWQKSSSLKLLSSSNSRSQLEHHHHHH", "soluble on expression in E. coli": "soluble"},
      {"sequence": "MARFSSVLIYDGECPYCSVAAKALEQVDDIGAISWYDESAQSFLTAQFDEPPFAMVLVDRPAQQVYAGRAAAEELAGRAGLPDLVGSLVRDNYEKIAHVVGLASGRGLEHHHHHH", "soluble on expression in E. coli": "not soluble"}
    ]}
  ]
}
